PMC6440019, “The WRKY transcription factor GhWRKY27 coordinates the senescence regulatory pathway in upland cotton (Gossypium hirsutum L.)”
Changes are numbered by the printed parent chain.

Tests used:
Settings in all cases: protein: recombinant; tags: 6xHis (pET-28a(+))
GhWRKY27 [1] = target: T1, GhWRKY27 (Gossypium hirsutum (CCRI74), UniProt A0A068LI73 1-355); assay: EMSA; self-competition abolishes band; supershift with anti-GhWRKY27; LightShift Chemiluminescent EMSA Kit (Thermo), manufacturer's instructions; buffer, salt, pH and temperature not stated
GhWRKY27 [2] = target: T1, GhWRKY27; assay: competition; excess unlabelled mutant vs labelled N1; LightShift Chemiluminescent EMSA Kit (Thermo), manufacturer's instructions; buffer, salt, pH and temperature not stated
GhWRKY27 [3] = target: T1, GhWRKY27; assay: EMSA; self-competition; supershift with anti-GhWRKY27; LightShift Chemiluminescent EMSA Kit (Thermo), manufacturer's instructions; buffer, salt, pH and temperature not stated

T1 sequence (A0A068LI73 entry or part of it): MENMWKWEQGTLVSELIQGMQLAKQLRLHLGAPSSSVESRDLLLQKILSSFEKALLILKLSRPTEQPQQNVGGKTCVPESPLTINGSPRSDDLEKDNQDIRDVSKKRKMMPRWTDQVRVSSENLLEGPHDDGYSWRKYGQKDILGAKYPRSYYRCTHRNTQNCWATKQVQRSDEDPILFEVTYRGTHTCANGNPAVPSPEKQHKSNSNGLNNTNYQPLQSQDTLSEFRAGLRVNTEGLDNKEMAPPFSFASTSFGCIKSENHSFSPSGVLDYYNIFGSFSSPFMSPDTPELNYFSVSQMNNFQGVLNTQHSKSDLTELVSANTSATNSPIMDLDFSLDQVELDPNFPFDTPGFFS

B1: GhCYP94C1 wild probe (dsDNA)
DNA 1: CCAGCTCCTCGCGAAAAGAAAAATGACTAAAAAAATATTTAATTCTTAGT
DNA 2: ACTAAGAATTAAATATTTTTTTAGTCATTTTTCTTTTCGCGAGGAGCTGG
binding result (GhWRKY27 [1]): binds

B2: GhCYP94C1 mutant probe (dsDNA)
DNA 1: B1 DNA 1 with C27A, T28A
DNA 2: B1 DNA 2 with A23T, G24T
binding result (GhWRKY27 [2]): no binding

B3: GhRipen2-2 wild probe (dsDNA)
DNA 1: CTGGGCTCAGGTCAGAAAAGCTTTACTCGGGGCTTGACTCGTTTTCTAA
DNA 2: TTAGAAAACGAGTCAAGCCCCGAGTAAAGCTTTTCTGACCTGAGCCCAG
binding result (GhWRKY27 [3]): binds
